Data published in the supplement of paper PMC9112550, “Optimization of the antimicrobial peptide Bac7 by deep mutational scanning” (BMC Biology, 2022).

Tested on: Escherichia coli TOP10
Assay: shrunken log2 fold change of peptide-encoding DNA abundance (4.5 h post-induction vs induction); higher = less antimicrobial activity (less host growth inhibition)
Conditions: time post-induction: 4.5 h; library: site-saturation at positions 5, 18, 19, 20
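Further: peptides expressed intracellularly from a pBAD plasmid library in pooled LB shake-flask culture, induced with 0.3% L-arabinose, DNA abundance read by NGS, three biological replicates, DESeq2 with apeglm shrinkage.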

Sequence	shrunken log2 fold change
RRIRYRPPRLPRPRPRPMGRPRP	-0.117
RRIRRRPPRLPRPRPRPVEPPRP	-0.0837
RRIRFRPPRLPRPRPRPNYCPRP	-0.499
RRIRDRPPRLPRPRPRPRHRPRP	0.375
RRIRRRPPRLPRPRPRPCQQPRP	-0.0197
RRIRNRPPRLPRPRPRPSGGPRP	0.0638
RRIRCRPPRLPRPRPRPTDNPRP	-0.58
RRIRARPPRLPRPRPRPKMSPRP	0.126
RRIRSRPPRLPRPRPRPDYEPRP	-0.221
RRIRRRPPRLPRPRPRPFTWPRP	-0.126
RRIRPRPPRLPRPRPRPYIFPRP	-0.984
RRIRCRPPRLPRPRPRPEGIPRP	-0.106
RRIRGRPPRLPRPRPRPFRCPRP	0.0939
RRIRMRPPRLPRPRPRPNSYPRP	-0.0962
RRIRFRPPRLPRPRPRPPYKPRP	-0.279
RRIRQRPPRLPRPRPRPYNCPRP	-0.92
RRIRCRPPRLPRPRPRPADDPRP	0.116
RRIRMRPPRLPRPRPRPMKYPRP	0.0979
RRIRARPPRLPRPRPRPVGGPRP	0.571
RRIRLRPPRLPRPRPRPDIVPRP	-0.0115
RRIRFRPPRLPRPRPRPANRPRP	-0.0406
RRIRDRPPRLPRPRPRPVCDPRP	0.696
RRIRDRPPRLPRPRPRPKILPRP	0.042
RRIRFRPPRLPRPRPRPVQNPRP	0.0293
RRIRMRPPRLPRPRPRPQCQPRP	-0.0148

Sequence	shrunken log2 fold change
RRIRLRPPRLPRPRPRPLASPRP	0.177
RRIRHRPPRLPRPRPRPEHDPRP	-0.051
RRIRSRPPRLPRPRPRPDQFPRP	-0.167
RRIRCRPPRLPRPRPRPLMWPRP	-0.185
RRIRVRPPRLPRPRPRPCKRPRP	-0.196
RRIRARPPRLPRPRPRPYLSPRP	-0.451
RRIRYRPPRLPRPRPRPCPLPRP	-1.91
RRIRMRPPRLPRPRPRPISDPRP	0.0757
RRIRTRPPRLPRPRPRPAFCPRP	0.113
RRIRVRPPRLPRPRPRPFLPPRP	-0.198
RRIRCRPPRLPRPRPRPEVYPRP	-0.0302
RRIRIRPPRLPRPRPRPKSWPRP	0.327
RRIRIRPPRLPRPRPRPYEGPRP	-0.00931
RRIRHRPPRLPRPRPRPKCDPRP	-0.0608
RRIRLRPPRLPRPRPRPCNGPRP	-0.00674
RRIRPRPPRLPRPRPRPTPLPRP	0.453
RRIRIRPPRLPRPRPRPWLQPRP	0.0391
RRIRCRPPRLPRPRPRPCDKPRP	-0.266
RRIRYRPPRLPRPRPRPETEPRP	0.0184
RRIRPRPPRLPRPRPRPTRNPRP	0.201
RRIRWRPPRLPRPRPRPFTAPRP	-0.0343
RRIRFRPPRLPRPRPRPDIPPRP	-0.634
RRIRQRPPRLPRPRPRPLGCPRP	-0.0282
RRIRLRPPRLPRPRPRPYPGPRP	-0.251
RRIRWRPPRLPRPRPRPSPTPRP	0.0554

Sequence	shrunken log2 fold change
RRIRDRPPRLPRPRPRPALGPRP	0.933
RRIRFRPPRLPRPRPRPTVYPRP	-0.307
RRIRIRPPRLPRPRPRPQTDPRP	-0.232
RRIRYRPPRLPRPRPRPRIGPRP	-0.471
RRIRMRPPRLPRPRPRPDLIPRP	0.0508
RRIRVRPPRLPRPRPRPGIEPRP	-0.28
RRIRLRPPRLPRPRPRPHVVPRP	0.00383
RRIRERPPRLPRPRPRPRRKPRP	0.11
RRIRPRPPRLPRPRPRPPANPRP	0.418
RRIRWRPPRLPRPRPRPLCSPRP	0.13
RRIRLRPPRLPRPRPRPHNGPRP	-0.00962
RRIRIRPPRLPRPRPRPHTEPRP	0.0578
RRIRVRPPRLPRPRPRPNICPRP	0.27
RRIRYRPPRLPRPRPRPEHMPRP	-0.304
RRIRQRPPRLPRPRPRPQYHPRP	-0.609
RRIRTRPPRLPRPRPRPIPWPRP	-0.0529
RRIRIRPPRLPRPRPRPKHYPRP	-0.44
RRIRERPPRLPRPRPRPWWPPRP	-0.155
RRIRLRPPRLPRPRPRPFGFPRP	-0.15
RRIRWRPPRLPRPRPRPTGQPRP	-0.0283
RRIRNRPPRLPRPRPRPFCWPRP	0.0104
RRIRWRPPRLPRPRPRPFAGPRP	0.0847
RRIRDRPPRLPRPRPRPGEPPRP	0.613
RRIRDRPPRLPRPRPRPSKIPRP	-0.381
RRIRARPPRLPRPRPRPKLFPRP	0.233

Sequence	shrunken log2 fold change
RRIRFRPPRLPRPRPRPPEHPRP	0.682
RRIRGRPPRLPRPRPRPSPQPRP	0.826
RRIRLRPPRLPRPRPRPYQEPRP	-0.46
RRIRIRPPRLPRPRPRPCEEPRP	0.0173
RRIRVRPPRLPRPRPRPYVHPRP	-0.104
RRIRKRPPRLPRPRPRPPMPPRP	0.525
RRIRWRPPRLPRPRPRPFTRPRP	-0.00433
RRIRARPPRLPRPRPRPDFEPRP	0.661
RRIRKRPPRLPRPRPRPHPPPRP	1.27
RRIRHRPPRLPRPRPRPEDDPRP	0.141
RRIRYRPPRLPRPRPRPLHNPRP	-0.507
RRIRQRPPRLPRPRPRPAAMPRP	0.248
RRIRCRPPRLPRPRPRPCYTPRP	-0.397
RRIRCRPPRLPRPRPRPEPIPRP	-0.0787
RRIRKRPPRLPRPRPRPFYPPRP	-0.0703
RRIRCRPPRLPRPRPRPKEFPRP	0.0238
RRIRTRPPRLPRPRPRPCLRPRP	0.0877
RRIRARPPRLPRPRPRPPQKPRP	1.29
RRIRGRPPRLPRPRPRPYVDPRP	-0.0322
RRIRGRPPRLPRPRPRPKLTPRP	0.808
RRIRNRPPRLPRPRPRPQADPRP	-0.0176
RRIRTRPPRLPRPRPRPKIYPRP	-0.191
RRIRARPPRLPRPRPRPKFNPRP	-0.129
RRIRNRPPRLPRPRPRPAHCPRP	-0.424
RRIRVRPPRLPRPRPRPWPQPRP	0.104

Sequence	shrunken log2 fold change
RRIRLRPPRLPRPRPRPEGQPRP	-0.118
RRIRNRPPRLPRPRPRPEDEPRP	-0.0168
RRIRWRPPRLPRPRPRPGLGPRP	0.83
RRIRWRPPRLPRPRPRPETGPRP	0.396
RRIRCRPPRLPRPRPRPEQCPRP	0.237
RRIRKRPPRLPRPRPRPCDYPRP	-0.0336
RRIRQRPPRLPRPRPRPGVMPRP	-0.0819
RRIRIRPPRLPRPRPRPTSVPRP	-0.18
RRIRIRPPRLPRPRPRPQHRPRP	-0.116
RRIRVRPPRLPRPRPRPIQFPRP	-0.0307
RRIRGRPPRLPRPRPRPHPWPRP	0.345
RRIRTRPPRLPRPRPRPKCEPRP	0.118
RRIRGRPPRLPRPRPRPYHWPRP	-0.407
RRIRHRPPRLPRPRPRPTWRPRP	0.381
RRIRFRPPRLPRPRPRPLCHPRP	-0.271
RRIRSRPPRLPRPRPRPHMAPRP	-0.361
RRIRARPPRLPRPRPRPPVTPRP	0.354
RRIRKRPPRLPRPRPRPHNGPRP	0.169
RRIRPRPPRLPRPRPRPNPKPRP	0.0202
RRIRIRPPRLPRPRPRPKWCPRP	-0.317
RRIRRRPPRLPRPRPRPKKPPRP	0.974
RRIRRRPPRLPRPRPRPGNTPRP	-0.142
RRIRQRPPRLPRPRPRPLETPRP	0.181
RRIRRRPPRLPRPRPRPQWLPRP	0.431
RRIRMRPPRLPRPRPRPECQPRP	3.29
